Test results taken from patent US20150118185, “Heparosan-Polypeptide and Heparosan-Polynucleotide Drug Conjugates and Methods of Making and Using Same” (The Board of Regents of the University of Oklahoma, published 2015).

Target: VEGF (Homo sapiens, UniProt P15692-4 P15692-4:27-191)
Test: EMSA; 1:1 molar ratio, 3 h, room temperature, 100 mM phosphate neutral pH, 10% TBE gel; high MW complex band; confirmed by HPLC-SEC at 552 nm (FIG. 33)
Details: chain copies: 2; label: 5' Cy3
Source text: The biological activity and therapeutic action of the anti-VEGF aptamer resides in its binding to its target: human recombinant VEGF. Without access to a growth factor, some cells will not be able to proliferate or survive; thus, these molecules are drug targets. Some drugs or drug candidates operate by binding to a growth factor; these molecules can be in the antibody (naturally produced or synthetically constructed) or the apatamer (nucleic acids) classes (e.g., any binding partner in theory). […] A shift mobility assay, using a 10% TBE gel, was used in order to assess the binding of HEP-aptamer to target (FIG. 32). […] As negative and positive control, VEGF was respectively incubated in the presence of heparosan (HEP) or heparin (i.e., VEGF is known to react with heparin and heparan sulfate).

Chain of VEGF (P15692 other isoform, or with tags, fused parts or gaps): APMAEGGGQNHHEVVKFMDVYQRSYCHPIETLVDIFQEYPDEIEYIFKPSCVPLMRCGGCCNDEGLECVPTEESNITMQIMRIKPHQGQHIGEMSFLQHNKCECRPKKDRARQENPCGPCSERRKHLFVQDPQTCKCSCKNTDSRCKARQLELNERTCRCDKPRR

B1: HEP-anti-VEGF DNA aptamer (ssDNA)
DNA: ACCCGTCTTCCAGACAAGAGTGCAGGGTT
modifications: 3' C6 thiol coupled to heparosan (38.8- or 60-kDa chain)
**Q.** Does B1 bind?
**A.** Result: binds
